The record followed here is US20240239887A1 (SUZHOU KANOVA BIOPHARMACEUTICAL, published 2024).

Usually Kd stands for the free concentration of one partner at which half of the binding sites on the other are occupied at equilibrium, for simple one-to-one binding. Read a high Kd as lower affinity. The term koff denotes the first-order rate constant of dissociation. High values mean fast dissociation, low ones slow dissociation. For orientation: kon means the rate constant with which the complex forms. Lower therefore signals slow association. The EC50 is the concentration at which the effect is half-maximal.

The target of assay [1] is T1, TIGIT (SPR analyte) (human, UniProt Q495A1 22-141, limits assumed).
T1 construct: the text says only 'TIGIT was used as the analyte'; The construct is not described; also called human TIGIT
T1 sequence (looked up): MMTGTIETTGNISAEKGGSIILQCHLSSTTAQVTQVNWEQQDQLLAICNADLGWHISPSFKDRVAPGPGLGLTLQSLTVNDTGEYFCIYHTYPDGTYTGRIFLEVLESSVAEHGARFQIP
Nature of the assay: SPR (Biacore 8K), antibody captured through Fc, TIGIT as analyte. The method, then:
TIGIT was used as the analyte. The surface was regenerated before the injection of another antibody. The process was repeated until all antibodies are analyzed. The off-rates of antibodies were obtained from fitting the experimental data locally to 1:1 interaction model using the Biacore 8K evaluation software. The antibodies were ranked by their dissociation rate constants (off-rates, kd) (Table 1). Based on the ranking result, the top 4 clones were selected.

Assay [2] addresses T2, human TIGIT/mIgG2aFc recombinant protein (human, UniProt Q495A1 22-141).
T2 construct: range 22-141; In-house production; also called TIGIT/mIgG2aFc protein; human TIGIT/mIgG2aFc protein; not shown: mouse IgG2a Fc
T2 sequence (looked up): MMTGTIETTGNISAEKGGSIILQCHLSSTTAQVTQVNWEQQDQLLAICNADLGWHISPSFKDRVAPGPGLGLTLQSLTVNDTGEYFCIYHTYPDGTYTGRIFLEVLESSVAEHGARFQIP
Put plainly: ELISA, plate coated with human TIGIT/mIgG2aFc, anti-human IgG-HRP detection. The method, then: MaxiSorp 96-well plates (NUNC #449824) were coated with 2 μg/mL human TIGIT/mIgG2aFc protein (in-house production, the method is well known in the art) in 1× PBS (50 μL/well). Plates were incubated at 4° C. overnight. Coating solution was removed and plates were washed once with 200 μL/well PBST (1× PBS containing 0.05% tween-20). Then 200 μL/well blocking buffer (1× PBS with 0.05% tween-20, 3% BSA) was added and incubated at room temperature for 1 hour. Blocking buffer was removed and plates were washed three times with 200 μL/well PBST. Antibody VH2+VL4 (produced in Example 2) and human IgG1 isotype control (hIgG1, Sigma #I5154-1MG) was diluted by 1× PBS and added to plates (50 μL/well). Plates were incubated at room temperature for 2 hours. Antibodies in the wells were removed and plates were washed three times with 200 μL/well PBST. Goat anti-human IgG(H&L)-HRP secondary antibody (Jackson Immuno Research #109-035-088) was diluted 1:5000 in 1× PBS and added to each well (50 μL/well). Plates were incubated at room temperature for 1 hour. Secondary antibody was removed and plates were washed five times with 200 μL/well PBST. 50 μL/well TMB (eBioscience #85-00-4201-56) was added and plates were incubated at room temperature for several minutes. Then 50 μL/well 2N H₂SO₄ was added to stop the reaction. Optical density was measured at 450 nm.
A general note: ELISA stands for enzyme-linked immunosorbent assay.

Assay [3] deals with T3, full-length human TIGIT on Jurkat/TIGIT cells (human, UniProt Q495A1 22-244).
T3 construct: whole, on cells; also called Human TIGIT-expressing Jurkat cells; TIGIT expressed on cell surface
T3 sequence (looked up): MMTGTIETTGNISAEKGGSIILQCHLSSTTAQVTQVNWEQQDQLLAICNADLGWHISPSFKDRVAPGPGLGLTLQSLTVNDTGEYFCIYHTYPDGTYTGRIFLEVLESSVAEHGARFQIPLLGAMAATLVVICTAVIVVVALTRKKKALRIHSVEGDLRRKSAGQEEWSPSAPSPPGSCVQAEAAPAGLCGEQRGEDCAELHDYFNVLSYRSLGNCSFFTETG
Nature of the assay: flow cytometry on Jurkat/TIGIT cells, Alexa Fluor 594 goat anti-human IgG secondary antibody, readout % of bound cells. The protocol:
Jurkat/TIGIT cells were incubated with different concentrations of anti-TIGIT antibody VH2+VL4 or human IgG1 isotype control at 4° C. for 30 minutes. Then cells were washed once by FACS buffer (PBS with 2% FBS) and incubated with Alexa Fluor 594 AffiniPure Goat Anti-human IgG secondary antibody (Jackson ImmunoResearch #109-585-088) at 4° C. for 30 minutes. After washed once by FACS buffer, cells were resuspended in 200 μL FACS buffer. The cells after staining were analyzed by BD LSRFortessa Flow Cytometer.
Background: In flow cytometry, cells or beads pass a laser one at a time.

For assay [4], the target named is T4, full-length cynomolgus TIGIT on 293T cells (cynomolgus, UniProt A0A7N9I9V4 89-312).
T4 construct: whole, on cells; also called cynomolgus-expressing 293T cells
Put plainly: flow cytometry on 293T cells transfected with cynomolgus TIGIT, biotin-labeled antibody detected with Brilliant Violet 421 streptavidin, readout % of bound cells. The method, then:
A DNA encoding full-length cynomolgus TIGIT (NCBI Accession No: XP_015300911.1) was cloned into pcDNA3.4 vector (Invitrogen #A14697) and transfected into 293T cells (Cell Bank, Chinese Academy of Sciences, #SCSP-502) by using Polyethylenimine Max reagent (Polysciences #24765-2). 48 hours post-transfection, cynomolgus-expressing 293T cells were incubated with different concentrations of biotin-labeled (Thermo #21338) anti-TIGIT antibody VH2+VL4 at 4° C. for 20 minutes. Then cells were washed once by FACS buffer (PBS with 2% FBS) and incubated with Brilliant Violet 421 Streptavidin (Biolegend #405225) at 4° C. for 30 minutes. After washed once by FACS buffer, cells were resuspended in 200 μL FACS buffer. The cells after staining were analyzed by BD FACSCelesta Flow Cytometer.

T4 sequence (A0A7N9I9V4 entry or part of it): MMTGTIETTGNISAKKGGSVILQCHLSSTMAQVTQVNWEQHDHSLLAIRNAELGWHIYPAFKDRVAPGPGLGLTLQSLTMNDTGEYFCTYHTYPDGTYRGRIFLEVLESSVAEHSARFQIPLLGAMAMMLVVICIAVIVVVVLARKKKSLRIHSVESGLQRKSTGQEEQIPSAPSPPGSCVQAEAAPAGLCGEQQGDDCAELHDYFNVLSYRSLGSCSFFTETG

B1: VH4 + VL2 (antibody, human IgG1, kappa, V domains shown)
VH: EVQLVQSGAEVKKPGESLKISCKGSGYTFSRYWIEWVRQMPGKGLEWMGEIFPGSGGTNYNEKFKGQVTISADKSISTAYLQWSSLKASDTAMYYCARHLGALDYWGQGTLVTVSS
VL: DIQMTQSPSSLSASVGDRVTITCSASSSVSYIHWYQQKPGKAPKLLIYRTSNLASGVPSRFSGSGSGTDFTLTISSLQPEDFATYYCQQYHSNPWTFGGGTKLEIKR
notes: Humanized full-length IgG; also called HC3 + LC1
In assay [1], B1 returned a Kd of 0.122 nM, a koff of 4.97e-05 s⁻¹ and a kon of 407000 M⁻¹ s⁻¹.

B2: anti-TIGIT antibody VH2+VL4 (antibody, human IgG1, kappa)
heavy: not shown
light: DIVMTQSPDSLAVSLGERATINCSASSSVSYIHWYQQKPGQPPKLLIYRTSNLASGVPDRFSGSGSGTDFTLTISSLQAEDVAVYYCQQYHSNPWTFGGGTKLEIKRTVAAPSVFIFPPSDEQLKSGTASVVCLLNNFYPREAKVQWKVDNALQSGNSQESVTEQDSKDSTYSLSSTLTLSKADYEKHKVYACEVTHQGLSSPVTKSFNRGEC
notes: Biotin-labeled in the cynomolgus TIGIT flow cytometry assay; also called HC1 + LC3
In assay [1], B2 showed a Kd of 0.101 nM, a koff of 4.47e-05 s⁻¹ and a kon of 444000 M⁻¹ s⁻¹. The EC50 in assay [2] stood at 0.47 nM. This molecule registered an EC50 in assay [3] of 1.13 nM. This molecule also returned an EC50 in assay [4] of 0.02 nM.

B3: VH3 + VL4 (antibody, human IgG1, kappa, V domains shown)
VH: QVQLVQSGAEVKKPGASVKVSCKASGYTFSRYWIEWVRQAPGQGLEWMGEIFPGSGGTNYNEKFKGRVTMTRDTSTSTVYMELSSLRSEDTAVYYCARHLGALDYWGQGTLVTVSS
VL: DIVMTQSPDSLAVSLGERATINCSASSSVSYIHWYQQKPGQPPKLLIYRTSNLASGVPDRFSGSGSGTDFTLTISSLQAEDVAVYYCQQYHSNPWTFGGGTKLEIKR
notes: Humanized full-length IgG; also called HC2 + LC3
Regarding B3, in assay [1], the Kd amounted to 0.11 nM, the koff is 4.38e-05 s⁻¹ and the kon worked out at 396000 M⁻¹ s⁻¹.

B4: Chimeric VH+VL (Parental mouse VH+VL combined with human Fc) (antibody, human IgG1, kappa, V domains shown)
VH: QVQLQQSGAELMKPGASVKISCKATGYTFSRYWIEWVKQRPGHGLEWIGEIFPGSGGTNYNEKFKGKATFTADTSSNTAYMQLTSLTSEDSAVYYCARHLGALDYWGQGTSVTVSS
VL: QIVLTQSPAIMSASPGEKVTISCSASSSVSYIHWYQQKAGSSPKPWIYRTSNLASGVPARLSGSGSGTSYFLTISSMEAEDAATYYCQQYHSNPWTFGGGTKLEIKR
notes: also called chimeric antibody
In assay [1], B4 gave a Kd of 0.179 nM, a koff of 5.56e-05 s⁻¹ and a kon of 310000 M⁻¹ s⁻¹.

B5: VH3 + VL3 (antibody, human IgG1, kappa, V domains shown)
VH: QVQLVQSGAEVKKPGASVKVSCKASGYTFSRYWIEWVRQAPGQGLEWMGEIFPGSGGTNYNEKFKGRVTMTRDTSTSTVYMELSSLRSEDTAVYYCARHLGALDYWGQGTLVTVSS
VL: EIVLTQSPGTLSLSPGERATLSCSASSSVSYIHWYQQKPGQAPRLLIYRTSNLASGIPDRFSGSGSGTDFTLTISRLEPEDFAVYYCQQYHSNPWTFGGGTKLEIKR
notes: Humanized full-length IgG; also called HC2 + LC2
For B5, in assay [1], the affinity, expressed as Kd, was 0.111 nM; the koff came to 3.25e-05 s⁻¹; the kon stood at 294000 M⁻¹ s⁻¹.
